Positions count from the first letter of the chain named.
B1: mAb 2.1.2 (ATCC Accession Number PTA-7328) (antibody, human IgG1, V domains shown)
VH: EVQLVQSGAEVKKPGESLKISCKGSGYSFTSYWIGWVRQMPGKGLEWMGIIYPGDSDTRYSPSFQGQVTISADKSISTAYLQWSSLKASDTAMYYCARQGDFWSGYGGMDVWGQGTTVTVSS
VL: DIVMTQTPHSSPVTLGQPASISCRSSQSLVSRDGNTYLSWLQQRPGQPPRLLIYKISNRFSGVPNRFSGSGAGTDFTLKISRVKAEDVGVYYCMQATQFPLTFGQGTRLEIK
notes: Human IgG1 kappa; also called 2.1.1; 50-001H2_1_1
B2: mAb 1.2.1 (antibody, human IgG1, V domains shown)
VH: EVQLVQSGAEVKKPGESLKISCKGSGYSFTSYWIGWVRQMPGKGLEWMGIIYPGDSDTRYSPSFQGQVTISADKSISTAYLQWSSLKASDTAMYYCARLGDYYNYYGMDVWGQGTTVTVSS
VL: B1 VL with H9L, S31H, R32S, N35K, I56S, N65D, K84E, M94V, L101I
notes: Human IgG1 kappa; also called 1.2.1.1; 50-001H1_2_1_1
B3: mAb 1.1.2 (ATCC Accession Number PTA-7329) (antibody, human IgG1, V domains shown)
VH: EVQLVQSGAEVKKPGESLKISCKGSGYSFTSYWIGWVRQMPGKGLEWMGIIYPGDSDTRYRPSFQGQVTISADKSITTAYLQWSSLKASDTAMYYCARHPSYGSGSPNFDYWGQGTLVTVSS
VL: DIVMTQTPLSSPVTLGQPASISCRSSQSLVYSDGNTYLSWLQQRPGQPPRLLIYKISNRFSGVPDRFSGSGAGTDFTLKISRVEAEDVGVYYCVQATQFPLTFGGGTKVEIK
notes: also called 50-001H1_1_2
B4: mAb 1.3.3 (antibody, V domains shown)
VH: B3 VH with R61S
VL: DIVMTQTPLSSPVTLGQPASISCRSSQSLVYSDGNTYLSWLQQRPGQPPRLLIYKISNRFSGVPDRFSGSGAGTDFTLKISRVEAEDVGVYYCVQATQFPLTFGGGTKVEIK
notes: Human IgG1 kappa
B5: mAb 1.5.3 (ATCC Accession Number PTA-7330) (antibody, human IgG1, V domains shown)
VH: B3 VH with R61S
VL: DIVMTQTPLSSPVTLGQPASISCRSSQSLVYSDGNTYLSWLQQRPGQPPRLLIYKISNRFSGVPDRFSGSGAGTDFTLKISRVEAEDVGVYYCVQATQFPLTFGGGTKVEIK
notes: Fully human IgG1 kappa; also called 50-001H1_5_3

Each binder was assayed against T1, human CD20 (human, UniProt P11836 1-297) (assay: FACS KD on SB cells expressing CD20 (GMF against mAb concentration, nonlinear fit)).
T1 construct: whole, on cells; In all assays CD20 stood on cells; also called CD20 antigen
T1 sequence (looked up): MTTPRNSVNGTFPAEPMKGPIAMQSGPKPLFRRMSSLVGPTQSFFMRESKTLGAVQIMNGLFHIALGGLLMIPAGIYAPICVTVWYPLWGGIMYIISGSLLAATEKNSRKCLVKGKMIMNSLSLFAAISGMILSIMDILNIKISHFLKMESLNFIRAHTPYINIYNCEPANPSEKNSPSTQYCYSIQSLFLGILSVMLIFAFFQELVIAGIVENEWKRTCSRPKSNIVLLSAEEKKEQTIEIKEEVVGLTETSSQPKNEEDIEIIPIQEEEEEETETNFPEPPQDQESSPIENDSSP
Procedure: The affinity of purified antibodies against CD20 (mAbs 1.1.2, 1.2.1, 2.1.2, 1.3.3, 1.5.3, 1.10.3.1, 1.13.2), Rituximab (positive control), and B1 was determined by FACS. Briefly, SB cells expressing CD20 were resuspended in FACS buffer (2% FBS, 0.05% NaN₃) at a concentration of approximately 5 million cells/mL. HSB cells were also resuspended in FACS buffer at a concentration of approximately 9 million cells/mL. Cells were kept on ice. Purified antibodies were serially diluted in filtered 1×PBS (2×) across 11 wells in 96-well plates. The twelfth well in each row contained buffer only. 1×PBS and cells were added to each mAb well such that the final volume was […] and each well contained approximately 375,000 cells. The final molecular concentration ranges for the mAbs were as follows:
Plates were placed on a plate shaker for 3 hours at 4° C., then spun and washed 3× with PBS. 200 μL of 145 nM Cy5 goat α-human polyclonal antibody was added to each well, and 200 μL of 192 nM Cy5 goat α-mouse polyclonal antibody was added to the cells complexed with B1 antibody. Plates were then incubated for 40 minutes at 4° C., then spun and washed 3× with PBS.
The Geometric Mean Fluorescence (GMF) of 10,000 cells for each mAb concentration was determined using a FACSCalibur instrument. No significant nonspecific binding (no significant signal) was apparent from the HSB cells. In each row containing the SB cells, the signal from the twelfth well (containing buffer only) was subtracted from the signal from the first 11 wells. A nonlinear plot of GMF as a function of molecular mAb concentration was fit using Scientist software using the equation: […]

Point of comparison: B5, Kd 9.1 nM. Against it:
- B1 — 2.4-fold lower, 3.8 nM
- B2 — within 1.5-fold, 11.9 nM
- B3 — within 1.5-fold, 11.1 nM
- B4 — within 1.5-fold, 8.9 nM

What follows are binders tested against T1, human CD20 (assay: cell-based or functional assay).

Point of comparison: B1, “% Lysis Daudi 0.001 µg/ml ADCC” value 52%. Against it:
- B2 — higher, 56%
- B3 — higher, 77%
- B4 — higher, 63%
- B5 — higher, 66%

Point of comparison: B2, “% Lysis Daudi 1 µg/ml ADCC” value 86%. Against it:
- B1 — lower, 70%
- B3 — higher, 96%
- B4 — higher, 88%
- B5 — lower, 79%

Point of comparison: B3, “% Lysis Raji 0.001 µg/ml ADCC” value 12%. Against it:
- B1 — lower, 7%
- B2 — lower, 8%
- B4 — lower, 9%
- B5 — lower, 10%

Point of comparison: B1, “% Lysis Raji 1 µg/ml ADCC” value 17%. Against it:
- B2 — higher, 45%
- B3 — higher, 53%
- B4 — higher, 33%
- B5 — higher, 53%

Point of comparison: B3, “% Lysis Ramos 0.001 µg/ml ADCC” value 15%. Against it:
- B1 — lower, 8%
- B2 — lower, 8%
- B4 — lower, 10%
- B5 — lower, 8%

Point of comparison: B1, “% Lysis Ramos 1 µg/ml ADCC” value 23%. Against it:
- B2 — higher, 67%
- B3 — higher, 84%
- B4 — higher, 58%
- B5 — higher, 60%

Point of comparison: B4, “EC50 µg/ml Daudi CDC” value 1.91 µg/mL. Against it:
- B1 — 3.7-fold lower, 0.51 µg/mL
- B2 — higher, > 10 µg/mL
- B3 — 2.4-fold lower, 0.8 µg/mL
- B5 — 5.2-fold higher, ~10 µg/mL

Point of comparison: B5, “EC50 µg/ml Raji CDC” value 0.53 µg/mL. Against it:
- B1 — 1.8-fold lower, 0.3 µg/mL
- B2 — higher, > 10 µg/mL
- B3 — within 1.5-fold, 0.4 µg/mL
- B4 — 2.4-fold lower, 0.22 µg/mL

Point of comparison: B5, “EC50 µg/ml Ramos Apoptosis Alamar Blue” value 0.08 µg/mL. Against it:
- B1 — 2.4-fold lower, 0.0329 µg/mL
- B3 — 1.7-fold lower, 0.0481 µg/mL
- B4 — 1.6-fold lower, 0.0485 µg/mL

Point of comparison: B3, “EC50 µg/ml Ramos Apoptosis Annexin V” value 0.518 µg/mL. Against it:
- B1 — 3.2-fold lower, 0.163 µg/mL
- B4 — 1.7-fold higher, 0.886 µg/mL
- B5 — 2-fold higher, 1.03 µg/mL

Point of comparison: B1, “EC50 µg/ml Ramos Apoptosis Cell Titer Glo” value 0.0135 µg/mL. Against it:
- B2 — 1100-fold higher, 15.2 µg/mL
- B3 — 3-fold higher, 0.041 µg/mL
- B4 — 25-fold higher, 0.332 µg/mL
- B5 — 14-fold higher, 0.191 µg/mL

Point of comparison: B3, “EC50 µg/ml Ramos Apoptosis WST-1” value 0.0055 µg/mL. Against it:
- B1 — within 1.5-fold, 0.0067 µg/mL
- B4 — 1.7-fold higher, 0.0096 µg/mL
- B5 — 6.7-fold higher, 0.037 µg/mL

Point of comparison: B5, “EC50 µg/ml Ramos CDC” value 2.56 µg/mL. Against it:
- B1 — 16-fold lower, 0.16 µg/mL
- B2 — higher, > 10 µg/mL
- B3 — 11-fold lower, 0.24 µg/mL
- B4 — 11-fold lower, 0.23 µg/mL

Reference: patent US20070014720A1 (published 2007)
